According to article PMC6041754 (Journal of Molecular Cell Biology, 2017):
Numbering of substitutions follows the chain as printed. Names may count otherwise. Values belong to the binder of their own block, whether it stands above or below them.

Columns and labels:
Ran^Δ181–216 = Ran^Δ181–216 (human, UniProt P62826 1-180); experiment: NMR
[1] = target: Ran (full-length, His6-tagged, from pET22b) (human, UniProt P62826 1-216); experiment: SPR

binding result (Ran^Δ181–216): binds
B1: Mog1 without a tag (co-expressed with Ran from pRSFDuet-1) (natural protein)
chain: MEPTRDCPLFGGAFSAILPMGAIDVSDLRPVPDNQEVFCHPVTDQSLIVELLELQAHVRGEAAARYHFEDVGGVQGARAVHVESVQPLSLENLALRGRCQEAWVLSGKQQIAKENQQVAKDVTLHQALLRLPQYQTDLLLTFNQPPPDNRSSLGPENLSPAPWSLGDFEQLVTSLTLHDPNIFGPQ
modifications: isotope labels (2H, 15N, ILV methyl 13CH3) as the sample required

fold reduction of binding affinity against wild-type Mog1 [1]: ~100 fold
B2: Mog1^E50K,E53K (natural protein)
chain: B1 chain with E50K, E53K
